Biological target: T1, WT-HBc capsids (hepatitis B core protein, genotype D; strain ayw; GenBank: V01460.1) (Hepatitis B virus (genotype D; strain ayw)), P03146
T1 chain: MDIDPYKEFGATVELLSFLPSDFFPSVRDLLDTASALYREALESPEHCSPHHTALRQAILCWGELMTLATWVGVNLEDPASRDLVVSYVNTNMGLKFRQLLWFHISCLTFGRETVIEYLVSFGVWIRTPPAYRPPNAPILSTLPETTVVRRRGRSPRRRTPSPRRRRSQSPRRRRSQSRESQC
Experiment: negative-staining electron microscopy
Conditions: remark: other sources report otherwise

B1: WT-HBc capsids (hepatitis B core protein, genotype D; strain ayw; GenBank: V01460.1), P03146 1-183 (natural protein)
chain: MDIDPYKEFGATVELLSFLPSDFFPSVRDLLDTASALYREALESPEHCSPHHTALRQAILCWGELMTLATWVGVNLEDPASRDLVVSYVNTNMGLKFRQLLWFHISCLTFGRETVIEYLVSFGVWIRTPPAYRPPNAPILSTLPETTVVRRRGRSPRRRTPSPRRRRSQSPRRRRSQSRESQC
stoichiometry N (subunits per capsid): 240
